B5: Mouse BiP (residues 27-655) (natural protein)
chain: not shown
notes: BiP, mouse, residues 27-655; also called full-length BiP; source: E. coli BL21, purified (Ni-NTA, anion exchange, SEC); not shown: His6, N-terminal, cleaved

For series [1], the target named is B5. Kind of series: fluorescence polarisation; 50 nM FITC-labeled client construct, BiP alone or Grp94 alone titrated; ADP conditions; 60 mM HEPES pH 7.0, 50 mM KCl, 5 mM MgCl2, 5% or 0% DMSO, 1 mM DTT, 0.75 mg/mL BSA, 1 mM ADP, 30 °C; single-site fit. The following applies: both partners purified. (In general: Fluorescence polarisation rises when a labelled molecule tumbles more slowly, as on binding a larger partner.)

In another series the target is T1, FITC-labeled BiP NBD (mouse, FITC on Cys27 (D27C)).
T1 construct: also called FITC-NBD; D27C BiP; source: E. coli BL21, purified
Kind of series: fluorescence polarisation; 50 nM FITC-labeled BiP NBD constructs, Grp94 or Grp94 MD titrated; 25 mM Tris pH 7.5, 50 mM KCl, 1 mM ADP (hexokinase-treated), 1 mM DTT; single-site binding fit. The conditions noted are these: both partners purified.

The target in series [2] is T2, FITC-labeled BiP_(D187A) NBD (mouse, FITC on Cys27 (D27C)).
T2 construct: interface II mutant; also called FITC-D187A NBD; source: E. coli BL21, purified
Described as above. The following applies: both partners purified.

The target of another series is T3, BiP/Grp94 (mouse, UniProt P20029 27-655; P08113 72-765, Δ287-328).
T3 construct: BiP, mouse, residues 27-655; Grp94, mouse, residues 72-765 with the charged linker removed (Δ287-328); also called BiP and Grp94; source: E. coli BL21, each purified (Ni-NTA, anion exchange, SEC), mixed; not shown: His6, N-terminal, cleaved; copies: + 2
T3 sequence (P20029 27-655, stated change not applied, one chain of several): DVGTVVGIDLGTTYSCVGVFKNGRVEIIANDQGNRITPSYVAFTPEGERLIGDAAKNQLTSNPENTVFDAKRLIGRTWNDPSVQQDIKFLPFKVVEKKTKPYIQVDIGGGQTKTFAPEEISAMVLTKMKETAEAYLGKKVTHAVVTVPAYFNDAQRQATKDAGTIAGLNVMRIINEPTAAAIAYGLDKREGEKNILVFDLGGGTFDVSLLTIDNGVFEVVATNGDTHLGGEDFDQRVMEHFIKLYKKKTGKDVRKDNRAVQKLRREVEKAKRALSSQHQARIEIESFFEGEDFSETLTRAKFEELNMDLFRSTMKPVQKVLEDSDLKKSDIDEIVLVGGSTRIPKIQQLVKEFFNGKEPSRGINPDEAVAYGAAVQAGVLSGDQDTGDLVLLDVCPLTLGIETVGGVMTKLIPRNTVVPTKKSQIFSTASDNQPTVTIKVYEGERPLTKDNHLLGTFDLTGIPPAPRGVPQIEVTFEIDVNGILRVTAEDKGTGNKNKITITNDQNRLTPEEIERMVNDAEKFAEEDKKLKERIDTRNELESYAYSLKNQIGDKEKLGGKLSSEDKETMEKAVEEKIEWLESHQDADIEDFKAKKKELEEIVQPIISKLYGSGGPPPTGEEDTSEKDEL
Kind of series: fluorescence polarisation; FITC-labeled client preincubated with BiP, Grp94 then added; BiP and Grp94 varied together (Fig. 6A, B; apparent) or 5 μM BiP and 5 μM Grp94 monomer (ΔP, Fig. 6C), with and without inhibitors; ADP conditions; 60 mM HEPES pH 7.0, 50 mM KCl, 5 mM MgCl2, 1 mM DTT, 0.75 mg/mL BSA, 1 mM ADP, 30 °C. The following applies: both partners purified.

Series [3] concerns the molecule itself. The series is described as follows: cross-linking; 1 μM M86C Grp94 dimer, 50 mM KCl, 50 mM Tris pH 8, 4% DMSO, with or without 5 μM BiP NBD and 50 μM inhibitor; disulfide formed with 10 mM oxidized glutathione, 25 °C, 2 h; SDS-PAGE.
The target in series [4] is T4, Grp94 (residues 72-765) with the charged-linker removed (Δ287-328) (mouse, UniProt P08113 72-765, Δ287-328).
T4 construct: Grp94, mouse, residues 72-765 with the charged linker removed (Δ287-328); also called wild-type Grp94; source: E. coli BL21, purified (Ni-NTA, anion exchange, SEC); not shown: His6, N-terminal, cleaved
Kind of series: fluorescence polarisation; FITC-labeled client preincubated with BiP, Grp94 then added; BiP and Grp94 varied together (Fig. 6A, B; apparent) or 5 μM BiP and 5 μM Grp94 monomer (ΔP, Fig. 6C), with and without inhibitors; ADP conditions; 60 mM HEPES pH 7.0, 50 mM KCl, 5 mM MgCl2, 1 mM DTT, 0.75 mg/mL BSA, 1 mM ADP, 30 °C. The conditions noted are these: both partners purified.

Several values for one entry are separate records, joined by “and”; a condition that tells them apart may be missing. Equal values may be shown once. Ends that are not written are not given here.

B1: proIGF2_(92-120) fragment (Ext. Site 1), FITC-labeled (domain or fragment, UniProt P01344 92-120, looked up)
chain: RDVC(FITC maleimide)TPPTVLPDNFPRYPVGKFFQYDTWK
notes: proIGF2 residues 92-120, cysteine mutation at Ser95; also called extended site 1; source: purified from inclusion bodies (8 M urea; ion exchange and/or Ni-NTA, denaturing)
Molecule B1 showed a Kd in series [1] of 1900 ± 500 nM.

B2: Grp94 MD (domain or fragment)
chain: NDIKPIWQRPSKEVEEDEYKAFYKSFSKESDDPMAYIHFTAEGEVTFKSILFVPTSAPRGLFDEYGSKKSDYIKLYVRRVFITDDFHDMMPKYLNFVKGVVDSDDLPLNVSRETLQQHKLLKVIRKKLVRKTLDMIKKIADEKYNDTFWKEFGTNIKLGVIEDHSNRTRLAKLLRFQSSHHSTDITSLDQYVERMKEKQDKIYFMAGSSRKEAESSPFVERLLKKGYEVIYLTEPVDEYCIQALPEFDGKRFQNVAKE
Regarding B2, the figures for the Kd (with FITC-labeled BiP NBD; in series [2]) were 5800 ± 1200 nM and 6500 ± 700 nM, respectively.

B3: FITC-labeled proIGF2_(25-120) (domain or fragment)
chain: AYGPGETLSGGELVDTLQFVSSDRGFYFSRPSSRANRRSRGIVEECSFRSSDLALLETYSATPAKSERDVSTSQAVLPDDFPRYPVGKFFQYDTWR
modifications: FITC (maleimide) on Cys70
Consider B3, for which the Kd with BiP/Grp94 was 1100 ± 200 nM; in series [1] it was 1500 nM and 2500 nM.

B4: M86C Grp94 (natural protein, mouse, UniProt P08113 72-765, looked up)
chain: KSEKFAFQAEVNRMCKLIINSLYKNKEIFLRELISNASDALDKIRLISLTDENALAGNEELTVKIKCDKEKNLLHVTDTGVGMTREELVKNLGTIAKSGTSEFLNKMTEAQEDGQSTSELIGQFGVGFYSAFLVADKVIVTSKHNNDTQHIWESDSNEFSVIADPRGNTLGRGTTITLVLKEEASDYLELDTIKNLVRKYSQFINFPIYVWSSKTTVWDWELMNDIKPIWQRPSKEVEEDEYKAFYKSFSKESDDPMAYIHFTAEGEVTFKSILFVPTSAPRGLFDEYGSKKSDYIKLYVRRVFITDDFHDMMPKYLNFVKGVVDSDDLPLNVSRETLQQHKLLKVIRKKLVRKTLDMIKKIADEKYNDTFWKEFGTNIKLGVIEDHSNRTRLAKLLRFQSSHHSTDITSLDQYVERMKEKQDKIYFMAGSSRKEAESSPFVERLLKKGYEVIYLTEPVDEYCIQALPEFDGKRFQNVAKEGVKFDESEKTKESREATEKEFEPLLNWMKDKALKDKIEKAVVSQRLTESPCALVASQYGWSGNMERIMKAQAYQTGKDISTNYYASQKKTFEINPRHPLIRDMLRRIKEDEDDKTVMDLAVVLFETATLRSGYLLPDTKAYGDRIERMLRLSLNIDPEAQVEEEPEEEPED
notes: Grp94, mouse, residues 72-765 with the charged linker removed (Δ287-328), M86C for a designed disulfide bond; also called Grp94_(M86C); source: E. coli BL21, purified (Ni-NTA, anion exchange, SEC); not shown: His6, N-terminal, cleaved
For B4, the binding result in series [3] is recorded as “binds”.

Regarding B5, in series [4], the binding result is on record as “binds”.

These data come from article PMC12000397, “Mechanism of client loading from BiP to Grp94 and its disruption by select inhibitors” (Nature Communications, 2025).
